The source of these data is article PMC10139993.

Experiment [1] concerns the target GFP only (eGFP expressed from the pcDNA3.1(+)-N-eGFP backbone without gene insertion). Nature of the experiment: single-molecule pull-down (SiMPull) with GFP photobleaching step counting; diluted NP40 lysate (1:100-1:10,000 in T50: 10 mM Tris-Cl pH 8.0, 50 mM NaCl) of transfected SH-SY5Y cells flowed over a PEG/neutravidin surface with biotinylated anti-GFP antibody; 488 nm TIRF, room temperature; photobleaching steps counted per spot; 30% dimers subtracted for GFP self-dimerisation; cells without or with 0.4 M sorbitol 4 h (also arsenite) before lysis.

Experiment [2] deals with T1, Fused in sarcoma (FUS) wildtype with N-terminal GFP tag, P35637.
T1 chain: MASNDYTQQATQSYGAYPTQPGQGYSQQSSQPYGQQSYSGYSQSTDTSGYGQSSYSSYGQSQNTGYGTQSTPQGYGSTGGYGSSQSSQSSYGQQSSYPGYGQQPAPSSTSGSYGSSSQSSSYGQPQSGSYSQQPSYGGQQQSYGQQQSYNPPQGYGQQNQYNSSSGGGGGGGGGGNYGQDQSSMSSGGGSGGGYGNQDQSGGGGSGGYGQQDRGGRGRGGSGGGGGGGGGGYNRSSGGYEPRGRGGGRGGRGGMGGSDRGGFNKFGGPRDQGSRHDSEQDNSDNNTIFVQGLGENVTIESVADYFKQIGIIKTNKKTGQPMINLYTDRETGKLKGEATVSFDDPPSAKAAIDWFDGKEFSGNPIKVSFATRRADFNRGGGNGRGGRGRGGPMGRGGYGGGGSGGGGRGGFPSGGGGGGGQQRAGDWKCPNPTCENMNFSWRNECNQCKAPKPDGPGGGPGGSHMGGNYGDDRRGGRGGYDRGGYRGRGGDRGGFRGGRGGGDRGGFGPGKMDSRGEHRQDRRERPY
Nature of the experiment: single-molecule pull-down (SiMPull) with GFP photobleaching step counting; diluted NP40 lysate (1:100-1:10,000 in T50: 10 mM Tris-Cl pH 8.0, 50 mM NaCl) of transfected SH-SY5Y cells flowed over a PEG/neutravidin surface with biotinylated anti-GFP antibody; 488 nm TIRF, room temperature; photobleaching steps counted per spot; 30% dimers subtracted for GFP self-dimerisation; cells without or with 0.4 M sorbitol 4 h …. The settings on record: remark: other sources report otherwise.

For “GFP only (eGFP expressed from the pcDNA3.1(+)-N-eGFP backbone without gene insertion)”, in experiment [1], the percent dimers is 30% and the percent monomers amounted to 70%.

B1: Fused in sarcoma (FUS) wildtype with N-terminal GFP tag, P35637 1-526 (natural protein)
chain: T1 chain
In experiment [2], B1 displayed an average photobleaching step (after subtracting the GFP self-dimer fraction) of 1.5 steps and an increase in average photobleaching steps with sorbitol stress of 0.5 steps.
